The test concerns the target T1, ERCAT-MBP (ERECTA kinase domain fused to maltose binding protein, kinase-active) (Arabidopsis, UniProt Q42371 611-976).
T1 construct: Expressed in E. coli from pMAL-c2 and purified on amylose resin; dot-blotted on nitrocellulose
T1 sequence: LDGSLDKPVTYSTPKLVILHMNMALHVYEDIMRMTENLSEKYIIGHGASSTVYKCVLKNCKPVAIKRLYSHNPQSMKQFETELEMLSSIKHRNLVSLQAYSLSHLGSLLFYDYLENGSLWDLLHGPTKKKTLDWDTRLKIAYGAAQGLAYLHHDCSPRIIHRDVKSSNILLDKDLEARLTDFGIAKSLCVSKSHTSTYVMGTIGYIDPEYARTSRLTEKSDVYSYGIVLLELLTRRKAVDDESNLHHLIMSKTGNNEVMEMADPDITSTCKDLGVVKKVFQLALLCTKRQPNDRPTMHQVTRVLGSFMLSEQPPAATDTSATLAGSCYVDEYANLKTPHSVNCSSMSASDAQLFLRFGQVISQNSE
Nature of the test: far-western dot blot with 32P-labelled GST-KID. The source says:
Far-Western Analysis of the ERECTA-KAPP Interaction: For protein-protein interaction (far-western) blot analysis, the kinase domains of ERECTA and RLK5 were expressed as MBP fusions. The ERECTA kinase domain (corresponding to amino acids 611 to 977) was amplified from cDNA using the primers ERK4 (5′ […] 3′, SEQ ID NO:34) and ER3rc (5′ […] 3′, SEQ ID NO:35). The amplified fragment was digested with EcoRI and BamHI and introduced into pSP73-delta-AatII to generate pKUT503. […] The first round of PCR was performed with the primer pairs ERK4 and ERK13/K676E (5′ […] 3′, SEQ ID NO:36) and ERKI5/K676E (5′ […] 3′, SEQ ID NO:37) and ERCodeC3 (5′ […] 3′, SEQ ID NO:38). In the next round, products from both reactions were mixed and amplified with ERK4 and ERCodeC3. The amplified fragment was digested with EcoRI and BamHI and introduced into the plasmid pSP73-delta-AatII to generate pKUT536. The EcoRI-SalI fragments of both pKUT503 and pKUT536 were cloned into pMAL-c2 (New England Biolabs). The plasmids RLK5CAT-MBP, RLK5CAT(K711E)MBP, and GST-KID 134 were generous gifts from John Walker (University of Missouri, Columbia). […] Protein concentrations were determined with Bio-Rad Protein Assay Solution. […]

B1: GST-KID (kinase interaction domain of Kinase-Associated Protein Phosphatase, KAPP, fused to glutathione S-transferase) (other, UniProt P46014 180-313, looked up)
chain: SWLFLEVIAGPAIGLQHAVNSTSSSKLPVKLGRVSPSDLALKDSEVSGKHAQITWNSTKFKWELVDMGSLNGTLVNSHSISHPDLGSRKWGNPVELASDDIITLGTTTKVYVRISSQNEFQIPFKIGVASDPMA
modifications: labeled with 32P
notes: Plasmid was a gift (John Walker); expressed in E. coli, purified on glutathione-Sepharose, 32P-labelled and used as the probe in the far-western dot blot; also called KAPP KID; radiolabeled KID protein; not shown: glutathione S-transferase (GST) fusion partner
B1: the binding result is given as “no binding (tested: One milligram blotted)”.

The values above are taken from US20050223428A1 (published 2005).
